In patent US20250114450A1, “PHARMACEUTICAL COMBINATION CONTAINING ANTI-PD-1-ANTI-VEGFA BISPECIFIC ANTIBODY, AND USE THEREOF” (Akeso Biopharma, Inc., priority 2021, published 2025) one finds Kd data, which are given here for one substance.

The target of this experiment is FcγRI (UniProt P12314). Briefly: BLI (Fortebio Octet), FcγRI immobilized on HIS1K sensor, antibody 3.12-50 nM, 1:1 fit. Background: Biolayer interferometry detects binding as a change in optical thickness at a sensor tip.
FcγRI, sequence (P12314 16-288 limits assumed): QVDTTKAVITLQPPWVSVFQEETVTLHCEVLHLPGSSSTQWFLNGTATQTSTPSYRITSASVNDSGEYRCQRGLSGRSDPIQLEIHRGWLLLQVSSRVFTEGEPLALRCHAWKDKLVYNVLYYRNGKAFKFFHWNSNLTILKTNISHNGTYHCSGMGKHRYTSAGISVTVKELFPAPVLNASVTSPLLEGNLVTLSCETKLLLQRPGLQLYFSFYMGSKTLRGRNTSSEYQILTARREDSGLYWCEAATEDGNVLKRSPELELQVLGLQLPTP

A word on the Kd: it is a measure of binding affinity in units of concentration. Higher therefore signals lower affinity. Take Nivolumab (antibody): the dissociation constant (Kd) turned out to be 6.2 nM.
